The record followed here is patent US20190177422A1 (SORRENTO THERAPEUTICS, published 2019).

This assay deals with T1, OX40 on OX40+ HEK293-NFkB-luciferase reporter stable cells (UniProt P43489 29-277).
T1 sequence (looked up): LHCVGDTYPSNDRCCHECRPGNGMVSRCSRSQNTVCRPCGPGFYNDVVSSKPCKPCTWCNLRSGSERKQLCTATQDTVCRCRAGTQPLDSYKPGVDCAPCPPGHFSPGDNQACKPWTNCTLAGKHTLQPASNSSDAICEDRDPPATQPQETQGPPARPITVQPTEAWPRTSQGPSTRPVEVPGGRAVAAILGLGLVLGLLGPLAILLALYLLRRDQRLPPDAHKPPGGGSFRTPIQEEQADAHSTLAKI
The assay can be described thus: cell-based or functional assay.

B1: OX4D7 (antibody, V domains shown)
VH: QVQLVQSGAEVKKPGASVKVSCKASGYTFTSYYMHWVRQAPGQGLEWMGIINPSGGSTSYAQKFQGRVTMTTDTSTSTAYMELRSLRSDDTAVYYCARDPYSSSWYGAEYFQHWGQGTLVTVSS
VL: QSVLTQPRSVSGSPGQSVTISCTGTSSDGGDYNYVSWYQQHPGQAPKLLIYEVSNRPSGVSNRFSGSKSGNTASLTISGLQAEDEADYYCSSYTSSSTLVVFGGGTKLTVL
B1: the “luciferase activity (RLUs) of OX40+ HEK293-NFkB-luciferase reporter cells, ~6 h stimulation, antibody at 20 µg/ml” value (from here on “luciferase activity (RLUs)”) was > 50 % of signal observed with purified rhOX40L+anti-His.

B2: OX1B2 (antibody, V domains shown)
VH: QVQLVQSGAEVKKPGASVKVSCKASGYTFTSYYMHWVRQAPGQGLEWMGIINPSGGSTSYAQKFQGRVTMTRDTSTSTVYMELSSLRSEDTAVYYCARDYYDSSGYSDYGMDVWGQGTTVTVSS
VL: DIVMTQSPSSLSASVGDRVTITCRASQSISSYLNWYQQKPGKAPKLLIYAASSLQSGVPSRFSGSGSGTDFTLTISSLQPEDFAIYYCQQNYNTRQVTFGQGTRLEIK
For the molecule B2, the “luciferase activity (RLUs)” value is > 50 % of signal observed with purified rhOX40L+anti-His.

B3: OX1D9 (antibody, V domains shown)
VH: QVQLVQSGAEVKKPGASVKVSCKASGYTFTSYGISWVRQALGQRLEWLGWINAGDGETKYSPKFQGRVTITRDTSASTAYMDLSGLTSEDTAVYYCARDFLSTMDYWGQGTLVTVSS
VL: DVVMTQSPSSLSASVGDRVTITCQASQDISNYLNWYQQKPGKAPKLLIYDASNLETGVPSRFSGGGSGTDFTFTISSLQPEDIATYYCQQFDNLPYTFGQGTKVEIK
In the case of B3, the “luciferase activity (RLUs)” value was > 50 % of signal observed with purified rhOX40L+anti-His.

B4: OX1C4 (antibody, V domains shown)
VH: EVQLVESGAEVKKPGASVKVSCKTSGYTFTGYYLHWVRQAPGQGLEWMGIINPGDGSTRNAQKFEGRVTMTRDTSTSTVYMELSSLSPEDTAVYYCARDLEYIGSGSLSWFDPWGQGTLVTVSS
VL: LPVLTQPASVSGSPGQSITISCSGTSSDFLTYDLVSWYKQQPGKAPKLMIYDVNKRPSGVSDRFSGSKSGNTASLTISGLQAADEADYYCSSYTSSSTPYVFGTGTKVTVL
B4: the “luciferase activity (RLUs)” value was > 50 % of signal observed with purified rhOX40L+anti-His.
